molecular target: human IL-6 (human, UniProt P05231 30-212); test: SPR (Biacore), supernatant antibody on Protein A chip, IL-6 flowed, 37 C
Procedure: Antibodies were captured on a Protein A chip (GE) by injecting 1:20 cell supernatant dilutions at 10 μL/min for 60 seconds. […] The sensor chip was regenerated by a 60 seconds injection of 10 mM Glycine pH 1.7 at the flow rate of 50 μL/min. […] For this setup, 1 μg/mL of purified antibody was injected over a Protein A chip at 10 μL/min for 25 seconds. […] The sensor chip was regenerated by a 60 seconds injection of 10 mM Glycine pH 1.7 at flow rate of 50 μL/min. Data analysis for supernatant and purified samples were performed using BIAevaluation software (GE). All sensorgrams were double reference subtracted and fit using a 1:1 Langmuir binding model.

human IL-6, sequence (P05231 30-212 limits assumed): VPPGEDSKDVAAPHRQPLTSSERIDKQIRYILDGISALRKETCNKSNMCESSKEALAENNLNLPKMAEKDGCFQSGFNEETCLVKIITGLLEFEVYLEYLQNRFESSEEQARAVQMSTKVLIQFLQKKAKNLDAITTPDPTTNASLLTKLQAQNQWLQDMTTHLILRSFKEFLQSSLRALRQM

| Binder | Kd | koff | kon |
| --- | --- | --- | --- |
| anti-IL-6 antibody, heavy chain T65P, G66D / light chain M32L, M50D, N52S, M88Q (antibody, human IgG1, V domains shown, Human IgG1) VH: EVQLVESGGGLVQPGGSLRLSCAASGFTFSPFAMSWVRQAPGKGLEWVAKISPGGSWTYYSDTVPDRFTFSLDTSKSTAYLQMNSLRAEDTAVYYCARQLWGYYALDIWGQGTLVTVSS VL: DIQLTQSPSSLSASVGDRVTITCSASISVSYLYWYQQKPGKAPKLLIYDDSSLASGVPSRFSGSGSGTDFTLTISSLQPEDFATYYCQQWSGYPYTFGQGTKVEIK | 0.601 nM | 0.00108 s⁻¹ | 1.79e+06 M⁻¹ s⁻¹ |
| anti-IL-6 antibody, heavy chain T65R, G66D / light chain M32L, M50D, N52S, M88Q (antibody, human IgG1, V domains shown, Human IgG1) VH: EVQLVESGGGLVQPGGSLRLSCAASGFTFSPFAMSWVRQAPGKGLEWVAKISPGGSWTYYSDTVRDRFTFSLDTSKSTAYLQMNSLRAEDTAVYYCARQLWGYYALDIWGQGTLVTVSS VL: DIQLTQSPSSLSASVGDRVTITCSASISVSYLYWYQQKPGKAPKLLIYDDSSLASGVPSRFSGSGSGTDFTLTISSLQPEDFATYYCQQWSGYPYTFGQGTKVEIK | 0.327 nM | 0.000532 s⁻¹ | 1.63e+06 M⁻¹ s⁻¹ |
| anti-IL-6 antibody, heavy chain T65A, G66D / light chain M32L, M50D, N52S, M88Q (antibody, human IgG1, V domains shown, Human IgG1) VH: EVQLVESGGGLVQPGGSLRLSCAASGFTFSPFAMSWVRQAPGKGLEWVAKISPGGSWTYYSDTVADRFTFSLDTSKSTAYLQMNSLRAEDTAVYYCARQLWGYYALDIWGQGTLVTVSS VL: DIQLTQSPSSLSASVGDRVTITCSASISVSYLYWYQQKPGKAPKLLIYDDSSLASGVPSRFSGSGSGTDFTLTISSLQPEDFATYYCQQWSGYPYTFGQGTKVEIK | 0.239 nM | 0.000542 s⁻¹ | 2.27e+06 M⁻¹ s⁻¹ |
| anti-IL-6 antibody, heavy chain T65Y, G66D / light chain M32L, M50D, N52S, M88Q (antibody, human IgG1, V domains shown, Human IgG1) VH: EVQLVESGGGLVQPGGSLRLSCAASGFTFSPFAMSWVRQAPGKGLEWVAKISPGGSWTYYSDTVYDRFTFSLDTSKSTAYLQMNSLRAEDTAVYYCARQLWGYYALDIWGQGTLVTVSS VL: DIQLTQSPSSLSASVGDRVTITCSASISVSYLYWYQQKPGKAPKLLIYDDSSLASGVPSRFSGSGSGTDFTLTISSLQPEDFATYYCQQWSGYPYTFGQGTKVEIK | 0.237 nM | 0.000367 s⁻¹ | 1.55e+06 M⁻¹ s⁻¹ |
| anti-IL-6 antibody, heavy chain T65S, G66D / light chain M32L, M50D, N52S, M88Q (antibody, human IgG1, V domains shown, Human IgG1) VH: EVQLVESGGGLVQPGGSLRLSCAASGFTFSPFAMSWVRQAPGKGLEWVAKISPGGSWTYYSDTVSDRFTFSLDTSKSTAYLQMNSLRAEDTAVYYCARQLWGYYALDIWGQGTLVTVSS VL: DIQLTQSPSSLSASVGDRVTITCSASISVSYLYWYQQKPGKAPKLLIYDDSSLASGVPSRFSGSGSGTDFTLTISSLQPEDFATYYCQQWSGYPYTFGQGTKVEIK | 0.31 nM | 0.000441 s⁻¹ | 1.42e+06 M⁻¹ s⁻¹ |
| anti-IL-6 antibody, heavy chain T65W, G66D / light chain M32L, M50D, N52S, M88Q (antibody, human IgG1, V domains shown, Human IgG1) VH: EVQLVESGGGLVQPGGSLRLSCAASGFTFSPFAMSWVRQAPGKGLEWVAKISPGGSWTYYSDTVWDRFTFSLDTSKSTAYLQMNSLRAEDTAVYYCARQLWGYYALDIWGQGTLVTVSS VL: DIQLTQSPSSLSASVGDRVTITCSASISVSYLYWYQQKPGKAPKLLIYDDSSLASGVPSRFSGSGSGTDFTLTISSLQPEDFATYYCQQWSGYPYTFGQGTKVEIK | 0.322 nM | 0.000384 s⁻¹ | 1.19e+06 M⁻¹ s⁻¹ |
| anti-IL-6 antibody, heavy chain T65G, G66D / light chain M32L, M50D, N52S, M88Q (antibody, human IgG1, V domains shown, Human IgG1) VH: EVQLVESGGGLVQPGGSLRLSCAASGFTFSPFAMSWVRQAPGKGLEWVAKISPGGSWTYYSDTVGDRFTFSLDTSKSTAYLQMNSLRAEDTAVYYCARQLWGYYALDIWGQGTLVTVSS VL: DIQLTQSPSSLSASVGDRVTITCSASISVSYLYWYQQKPGKAPKLLIYDDSSLASGVPSRFSGSGSGTDFTLTISSLQPEDFATYYCQQWSGYPYTFGQGTKVEIK | 0.311 nM | 0.000477 s⁻¹ | 1.53e+06 M⁻¹ s⁻¹ |
| anti-IL-6 antibody, heavy chain T65L, G66D / light chain M32L, M50D, N52S, M88Q (antibody, human IgG1, V domains shown, Human IgG1) VH: EVQLVESGGGLVQPGGSLRLSCAASGFTFSPFAMSWVRQAPGKGLEWVAKISPGGSWTYYSDTVLDRFTFSLDTSKSTAYLQMNSLRAEDTAVYYCARQLWGYYALDIWGQGTLVTVSS VL: DIQLTQSPSSLSASVGDRVTITCSASISVSYLYWYQQKPGKAPKLLIYDDSSLASGVPSRFSGSGSGTDFTLTISSLQPEDFATYYCQQWSGYPYTFGQGTKVEIK | 0.293 nM | 0.000446 s⁻¹ | 1.53e+06 M⁻¹ s⁻¹ |
| anti-IL-6 antibody, heavy chain T65H, G66D / light chain M32L, M50D, N52S, M88Q (antibody, human IgG1, V domains shown, Human IgG1) VH: EVQLVESGGGLVQPGGSLRLSCAASGFTFSPFAMSWVRQAPGKGLEWVAKISPGGSWTYYSDTVHDRFTFSLDTSKSTAYLQMNSLRAEDTAVYYCARQLWGYYALDIWGQGTLVTVSS VL: DIQLTQSPSSLSASVGDRVTITCSASISVSYLYWYQQKPGKAPKLLIYDDSSLASGVPSRFSGSGSGTDFTLTISSLQPEDFATYYCQQWSGYPYTFGQGTKVEIK | 0.297 nM | 0.000423 s⁻¹ | 1.43e+06 M⁻¹ s⁻¹ |
| anti-IL-6 antibody, heavy chain T65K, G66D / light chain M32L, M50D, N52S, M88Q (antibody, human IgG1, V domains shown, Human IgG1) VH: EVQLVESGGGLVQPGGSLRLSCAASGFTFSPFAMSWVRQAPGKGLEWVAKISPGGSWTYYSDTVKDRFTFSLDTSKSTAYLQMNSLRAEDTAVYYCARQLWGYYALDIWGQGTLVTVSS VL: DIQLTQSPSSLSASVGDRVTITCSASISVSYLYWYQQKPGKAPKLLIYDDSSLASGVPSRFSGSGSGTDFTLTISSLQPEDFATYYCQQWSGYPYTFGQGTKVEIK | 0.356 nM | 0.000579 s⁻¹ | 1.63e+06 M⁻¹ s⁻¹ |
| anti-IL-6 antibody, heavy chain T65F, G66D / light chain M32L, M50D, N52S, M88Q (antibody, human IgG1, V domains shown, Human IgG1) VH: EVQLVESGGGLVQPGGSLRLSCAASGFTFSPFAMSWVRQAPGKGLEWVAKISPGGSWTYYSDTVFDRFTFSLDTSKSTAYLQMNSLRAEDTAVYYCARQLWGYYALDIWGQGTLVTVSS VL: DIQLTQSPSSLSASVGDRVTITCSASISVSYLYWYQQKPGKAPKLLIYDDSSLASGVPSRFSGSGSGTDFTLTISSLQPEDFATYYCQQWSGYPYTFGQGTKVEIK | 0.291 nM | 0.000391 s⁻¹ | 1.34e+06 M⁻¹ s⁻¹ |
| anti-IL-6 antibody, heavy chain T63Y, G66D / light chain M32L, M50D, N52S, M88Q (antibody, human IgG1, V domains shown, Human IgG1) VH: EVQLVESGGGLVQPGGSLRLSCAASGFTFSPFAMSWVRQAPGKGLEWVAKISPGGSWTYYSDYVTDRFTFSLDTSKSTAYLQMNSLRAEDTAVYYCARQLWGYYALDIWGQGTLVTVSS VL: DIQLTQSPSSLSASVGDRVTITCSASISVSYLYWYQQKPGKAPKLLIYDDSSLASGVPSRFSGSGSGTDFTLTISSLQPEDFATYYCQQWSGYPYTFGQGTKVEIK | 0.241 nM | 0.000459 s⁻¹ | 1.91e+06 M⁻¹ s⁻¹ |
| anti-IL-6 antibody, heavy chain T65V, G66D / light chain M32L, M50D, N52S, M88Q (antibody, human IgG1, V domains shown, Human IgG1) VH: EVQLVESGGGLVQPGGSLRLSCAASGFTFSPFAMSWVRQAPGKGLEWVAKISPGGSWTYYSDTVVDRFTFSLDTSKSTAYLQMNSLRAEDTAVYYCARQLWGYYALDIWGQGTLVTVSS VL: DIQLTQSPSSLSASVGDRVTITCSASISVSYLYWYQQKPGKAPKLLIYDDSSLASGVPSRFSGSGSGTDFTLTISSLQPEDFATYYCQQWSGYPYTFGQGTKVEIK | 0.281 nM | 0.000551 s⁻¹ | 1.96e+06 M⁻¹ s⁻¹ |
| anti-IL-6 antibody, heavy chain T65E, G66D / light chain M32L, M50D, N52S, M88Q (antibody, human IgG1, V domains shown, Human IgG1) VH: EVQLVESGGGLVQPGGSLRLSCAASGFTFSPFAMSWVRQAPGKGLEWVAKISPGGSWTYYSDTVEDRFTFSLDTSKSTAYLQMNSLRAEDTAVYYCARQLWGYYALDIWGQGTLVTVSS VL: DIQLTQSPSSLSASVGDRVTITCSASISVSYLYWYQQKPGKAPKLLIYDDSSLASGVPSRFSGSGSGTDFTLTISSLQPEDFATYYCQQWSGYPYTFGQGTKVEIK | 0.279 nM | 0.000474 s⁻¹ | 1.7e+06 M⁻¹ s⁻¹ |
| anti-IL-6 antibody, heavy chain T63W, G66D / light chain M32L, M50D, N52S, M88Q (antibody, human IgG1, V domains shown, Human IgG1) VH: EVQLVESGGGLVQPGGSLRLSCAASGFTFSPFAMSWVRQAPGKGLEWVAKISPGGSWTYYSDWVTDRFTFSLDTSKSTAYLQMNSLRAEDTAVYYCARQLWGYYALDIWGQGTLVTVSS VL: DIQLTQSPSSLSASVGDRVTITCSASISVSYLYWYQQKPGKAPKLLIYDDSSLASGVPSRFSGSGSGTDFTLTISSLQPEDFATYYCQQWSGYPYTFGQGTKVEIK | 0.286 nM | 0.000449 s⁻¹ | 1.57e+06 M⁻¹ s⁻¹ |
| anti-IL-6 antibody, heavy chain T65D, G66D / light chain M32L, M50D, N52S, M88Q (antibody, human IgG1, V domains shown, Human IgG1) VH: EVQLVESGGGLVQPGGSLRLSCAASGFTFSPFAMSWVRQAPGKGLEWVAKISPGGSWTYYSDTVDDRFTFSLDTSKSTAYLQMNSLRAEDTAVYYCARQLWGYYALDIWGQGTLVTVSS VL: DIQLTQSPSSLSASVGDRVTITCSASISVSYLYWYQQKPGKAPKLLIYDDSSLASGVPSRFSGSGSGTDFTLTISSLQPEDFATYYCQQWSGYPYTFGQGTKVEIK | 0.465 nM | 0.00048 s⁻¹ | 1.03e+06 M⁻¹ s⁻¹ |

molecular target: recombinant human IL-6 (human, UniProt P05231 30-212); test: SPR, IL-6 on CM5 chip, Fab lysate, 25 C
Sequence (P05231 30-212 limits assumed): as the sequence (P05231 30-212 limits assumed) above
Procedure: Three ranges of antigen density (100-150 RU, 300-400 RU, 400-600 RU) were obtained by using variable flow times for each chip channel, later blocked with ethanolamine. Supernatants of the 96-well filtered culture lysates were injected at 50 μL/min for 120 seconds. Fitting of dissociation curves (300 seconds) to single exponential decay curve was used for the determination of dissociation rates (koff). Chip surfaces were regenerated with 10 mM Glycine pH 1.7 solution injected at 50 μL/min during 60 seconds after every cycle of sample binding and dissociation.

| Binder | koff |
| --- | --- |
| anti-IL-6 Fab, parental molecule (Fab, V domains shown, Fab expressed in E. coli TG1, tested as filtered lysate; also called wild-type; parent molecule) VH: EVQLVESGGGLVQPGGSLRLSCAASGFTFSPFAMSWVRQAPGKGLEWVAKISPGGSWTYYSDTVTGRFTFSLDTSKSTAYLQMNSLRAEDTAVYYCARQLWGYYALDIWGQGTLVTVSS VL: DIQLTQSPSSLSASVGDRVTITCSASISVSYMYWYQQKPGKAPKLLIYDMSNLASGVPSRFSGSGSGTDFTLTISSLQPEDFATYYCMQWSGYPYTFGQGTKVEIK | 0.00494 s⁻¹ |

Reference: US20240209076A1 (KODIAK SCIENCES, published 2024)
